# Laboratory results: PMC11652653, “SON-1010: an albumin-binding IL-12 fusion protein that improves cytokine half-life, targets tumors, and enhances therapeutic efficacy” (Frontiers in Immunology, 2024)
# Biological target: T1, human serum albumin (human, UniProt P02768 25-609)
# T1 construct: human serum albumin (HSA); also called HSA; rHSA
# Test: SPR; HSA bound to the chip, SON-1010 added, then SPARC (ternary complex); pH 6.0
# Details: both partners purified
binder,measurement,value
"secreted protein acidic and rich in cysteine (natural protein, UniProt P09486 18-303, looked up, SPARC (secreted protein acidic and rich in cysteine); also called SPARC) APQQEALPDETEVVEETVAEVTEVSVGANPVQVEVGEFDDGAEETEEEVVAENPCQNHHCKHGKVCELDENNTPMCVCQDPTSCPAPIGEFEKVCSNDNKTFDSSCHFFATKCTLEGTKKGHKLHLDYIGPCKYIPPCLDSELTEFPLRMRDWLKNVLVTLYERDEDNNLLTEKQKLRVKKIHENEKRLEAGDHPVELLARDFEKNYNMYIFPVHWQFGQLDQHPIDGYLSHTELAPLRAPLIPMEHCTTRFFETCDLDNDKYIALDEWAGCFGIKQKDIDKDLVI",Kd,10 nM
